For this test, the target named is Pre-cleaved FUS (tag-free Fused in sarcoma) (UniProt P35637). The test can be described thus: fluorescence correlation spectroscopy.

One substance from PMC12612064 can be followed below.

Sequence of UniProt P35637 (P35637 whole entry, the tested form may be a part): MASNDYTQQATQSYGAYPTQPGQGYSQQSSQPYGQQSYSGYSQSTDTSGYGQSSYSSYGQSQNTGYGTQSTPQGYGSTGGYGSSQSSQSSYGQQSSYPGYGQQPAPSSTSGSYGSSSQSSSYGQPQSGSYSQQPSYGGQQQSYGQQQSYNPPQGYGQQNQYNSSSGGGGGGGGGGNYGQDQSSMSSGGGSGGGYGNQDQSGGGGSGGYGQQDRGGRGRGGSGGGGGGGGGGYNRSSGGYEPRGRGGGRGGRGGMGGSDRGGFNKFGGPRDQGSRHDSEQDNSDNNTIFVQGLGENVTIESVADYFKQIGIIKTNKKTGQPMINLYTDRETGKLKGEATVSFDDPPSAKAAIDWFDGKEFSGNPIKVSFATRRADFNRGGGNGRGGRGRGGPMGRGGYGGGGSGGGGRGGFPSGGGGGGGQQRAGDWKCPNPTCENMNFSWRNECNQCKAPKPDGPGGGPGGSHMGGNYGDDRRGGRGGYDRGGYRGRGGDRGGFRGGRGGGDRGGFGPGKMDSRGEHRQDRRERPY

“Cy3-labeled pre-cleaved FUS (from UniProt P35637 1-526) (natural protein)”: the second critical concentration (condensate formation) was determined as 1 µM.
